Test results from patent US20220193196A1, “Methods for Modulating T Cell Activation” (THE WALTER AND ELIZA HALL INSTITUTE OF MEDICAL RESEARCH, priority 2019, published 2022).
Entries after “also recorded” stand apart in the source; their conditions may differ.

Assays:
mouse CD8 T cells = test: Cytokine bead array: IFNγ production by TCR activated CD8 T cells; assay type: cell-based; settings: anti-CD3 10 μg/ml
Protocol: Supernatant was removed from T cell cultures at 48 hours and CBAs performed to measure IFNγ production. Data represent mean for duplicate samples. ND=none detected.
(§1) The following T cell stimulations were used: TCR was stimulated using 10 μg/ml plate bound anti-CD3 (clone 145-2c11, WEHI antibody facility, Australia) unless a different concentration was specified. Recombinant murine TNF was purchased from R&D Systems (Minneapolis, Minn., USA). Recombinant mIL-2 was purchased from Peprotech. Smac-mimetics were purchased from Sellekchem, MA. The TNFR2 agonist mSTAR was prepared according from HEK293 cells were transiently transfected and cells cultured for 5-7 days, supernatants were purified using anti-Flag affinity chromatography, and the concentrations of the recombinant proteins were determined compared to standard proteins.
Supernatant from T cell cultures 48 hours after activation as described above were used to measure cytokine production (IL-2, IL-4, IL-6, IFN-γ, TNF, IL-17A and IL-10) using the Th1/Th2/Th17 BD Cytometric Bead Array (CBA) Kit (BD Bioscience). The CBA assay was performed according to manufacturer's instructions.
The effect of TNFR2 co-stimulation with TNF on the differentiation of TCR activated CD8 T cells was determined. […] This effect was synergised by the addition of smac-mimetics or IL-2 (FIG. 23).

tnfr2−/− CD4 T cells = test: Expansion of anti-CD3 activated CD4 T cells deficient for TNFR2; assay type: cell-based, mouse; settings: anti-CD3 10 μg/ml, TNF 5 ng/ml
Protocol: (§2) All experiments were performed using C57BL/6 mice bred and maintained under specific pathogen-free conditions in the WEHI animal facilities (Parkville, Victoria, Australia) and used between 8-20 weeks of age. All experiments were performed under the approval of the WEHI Animal Ethics Committee. Tnfr1−/− and Tnfr2−/− mice were maintained at the WEHI.
(§3) T cells were isolated from pooled mouse lymph nodes (inguinal, axillary, brachial, superficial cervical and lumbar) and isolated using MACS negative selection kits for CD4+ or CD8+ T cells (Miltenyi Biotec, Auburn, Calif., USA). T cell purity was confirmed by flow cytometry following isolation. For all experiments, T cell purity was between 82.9-98.2%. […]
as §1, with “Recombinant murine TNF was purchased from R&D Systems (Minneapolis, Minn., USA). Recombinant mIL-2 was purchased from Peprotech. Smac-mimetics were purchased from Sellekchem, MA.” left out, “proteins. […]” for “proteins.”
(§4) To determine the role of TNF receptors 1 (TNFR1) and 2 (TNFR2) as regulators of TNFα driven T cell co-stimulation, the response of T cells deficient for either TNFR1 or TNFR2 was measured. […]

tnfr1−/− CD4 T cells = test: Expansion of anti-CD3 activated CD4 T cells deficient for TNFR1; assay type: cell-based, mouse; settings: anti-CD3 10 μg/ml, TNF 5 ng/ml, compared with WT CD4 T cells
Protocol: as §2, §3
as §1, with “Recombinant murine TNF was purchased from R&D Systems (Minneapolis, Minn., USA). Recombinant mIL-2 was purchased from Peprotech. Smac-mimetics were purchased from Sellekchem, MA.” left out, “proteins. […]” for “proteins.”
as §4

naïve mouse CD8 T cells = test: Expansion of anti-CD3 activated naïve CD8 T cells (total cell numbers, CTV dilution by flow cytometry); assay type: cell-based; settings: for receptor through which TNF co-stimulates CD8 T cells: CD8 T cells from WT, tnfr1−/− or tnfr2−/− mice, anti-CD3, TNF 5 ng/ml, 4 days
Protocol: (§5) T cells were isolated from pooled mouse lymph nodes (inguinal, axillary, brachial, superficial cervical and lumbar) and isolated using MACS negative selection kits for CD4+ or CD8+ T cells (Miltenyi Biotec, Auburn, Calif., USA). T cell purity was confirmed by flow cytometry following isolation. For all experiments, T cell purity was between 82.9-98.2%.
(§6) T cells were cultured in RPMI 1640 medium (Invitrogen) supplemented with non-essential amino acids, 1 mM Sodium-pyruvate, 10 mM HEPES, 100 U/ml Penicillin, 100 μg/ml Streptomycin (Invitrogen), 50 μM 2β-mercaptoethanol, 2 mM L-glutamine (Sigma) and 10% FCS (Sigma). Cells were incubated in a humidified environment at 37° C. in 5% CO2. For division tracking experiments, T cells were labelled with Cell Trace Violet (Invitrogen) according to the manufacturer's instructions. T cells were cultured in flat bottom tissue culture plates.
as §1
Triplicate wells were harvested at each time point. To determine absolute cell numbers, the number of live cells per culture was estimated by reference to a known number of Calibrite beads (Becton Dickinson, San Jose, Calif.), added directly to cell culture before collecting. Dead cells were identified via uptake of propidium iodide (SigmaAldrich) added to culture before flow cytometry. Flow cytometry was performed on a BD FACS Canto II or Fortessa.
To determine if TNF co-stimulation was restricted to CD4 T cells, or could act on all effector cells from the T cell lineage, co-stimulation of naïve CD8 T cells by TNFα was measured. Naïve CTV labelled CD8 T cells were cultured in the presence of plate bound anti-CD3 with various concentrations of recombinant mouse TNFα and the response measured by flow cytometry.
Naïve CD8 T cells were isolated from WT mice and stimulated with combinations of anti-CD3, TNF and SMAC mimetics. The expansion of CD8 T cells was determined by measuring T cell numbers quantified relative to a known number of quantification beads via flow cytometry.

naïve mouse CD4 T cells = test: Expansion of anti-CD3 activated naïve CD4 T cells (total cell numbers, CTV dilution by flow cytometry); assay type: cell-based; settings: for CD4 T cell expansion (total live cell number, dilution of cell division dyes): plate bound anti-CD3 10 μg/ml, titrated doses of soluble recombinant TNF, over 4 days
Protocol: as §5, §6, §1
Triplicate wells were harvested at each time point. To determine absolute cell numbers, the number of live cells per culture was estimated by reference to a known number of Calibrite beads (Becton Dickinson, San Jose, Calif.), added directly to cell culture before collecting. […]
To examine the role of TNFα in T cell co-stimulation, naïve CD4 T cells were isolated from C57Bl/6 mice and stimulated with a range of recombinant mouse TNF concentrations in the presence of T cell receptor (TCR) crosslinking via plate bound anti-CD3 stimulation. CD4 T cells were labelled with the cell division tracking dye cell trace violet (CTV) and the response measured daily over 96 hours by quantifying T cell expansion using flow cytometry.
To determine if the co-stimulation effect of TNF on T cells could be mimicked using an agonist specific for TNFR2, the response of naïve mouse CD4 T cells activated via TCR in the presence of recombinant mouse TNF, or a TNFR2-specific agonist called mSTAR (Rauert et al., 2010; Chopra et al., 2016) was measured. Naïve CD4 T cells were CTV labelled and the response measured by flow cytometry after stimulation with anti-CD3 in the presence of TNF or mSTAR (FIGS. 16 to 19).

[1] = tested on: CD8 T cells deficient for TNFR2; test: Co-stimulation of anti-CD3 activated CD8 T cells deficient for TNFR2 (dilution of cell tracking dyes); assay type: cell-based, mouse; settings: anti-CD3 10 μg/ml, mSTAR 5 ng/ml, 72 hours
Protocol: Data are representative examples of triplicate cultures.
as §2, §3
as §1, with “Recombinant murine TNF was purchased from R&D Systems (Minneapolis, Minn., USA). Recombinant mIL-2 was purchased from Peprotech. Smac-mimetics were purchased from Sellekchem, MA.” left out

[2] = anti-CD3 10 μg/ml, TNF 5 ng/ml or mSTAR 5 ng/ml, 72 hours

B1: TNF: Recombinant murine TNF purchased from R&D Systems; wild type, not TNFR2-specific (protein)
chain: LRSSSQNSSDKPVAHVVANHQVEEQLEWLSQRANALLANGMDLKDNQLVVPADGLYLVYSQVLFKGQGCPDYVLLTHTVSRFAISYQEKVNLLSAVKSPCPKDTPEGAELKPWYEPIYLGGVFQLEKGDQLSAEVNLPKYLDFAESGQVYFGVIAL
IFNγ production (mouse CD8 T cells; TNF 5 ng/ml, supernatant at 48 hours): significantly increased; also recorded: increases IFNγ production
co-stimulation of CD4 T cells in the absence of TNFR2 (tnfr2−/− CD4 T cells): no co-stimulation
response of tnfr1−/− CD4 T cells to TNF co-stimulation (tnfr1−/− CD4 T cells): indistinguishable from WT CD4 T cells
receptor through which TNF co-stimulates CD8 T cells (naïve mouse CD8 T cells): co-stimulates CD8 T cells through TNFR2
receptor through which TNF co-stimulates CD8 T cells (naïve mouse CD8 T cells; listed as TNFα): mediated exclusively by TNFR2
CD8 T cell expansion (total CD8 T cell numbers, dilution of division tracking dyes) (naïve mouse CD8 T cells; plate bound anti-CD3 10 μg/ml, titrated doses of soluble recombinant TNF, over 4 days): potent co-stimulator of CD8 T cells; also recorded: potent co-stimulation factor to promote CD8 T cell division and expansion
receptor through which TNF co-stimulates CD4 T cells (naïve mouse CD4 T cells; CD4 T cells from WT, tnfr1−/− or tnfr2−/− mice, anti-CD3, TNF 5 ng/ml, 4 days): act exclusively through TNFR2; also recorded: co-stimulates CD4 T cells through TNFR2
CD4 T cell expansion (total live cell number, dilution of cell division dyes) (naïve mouse CD4 T cells): promotes CD4 T cell division and expansion
CD4 T cell expansion (total live cell number, dilution of cell division dyes) (naïve mouse CD4 T cells; listed as TNFα): significantly enhanced CD4 T cell expansion in a dose dependent manner

B2: IL-2: Recombinant mIL-2 purchased from Peprotech (protein, UniProt P04351 21-169, looked up)
Interleukin-2: APTSSSTSSSTAEAQQQQQQQQQQQQHLEQLLMDLQELLSRMENYRNLKLPRMLTFKFYLPKQATELKDLQCLEDELGPLRHVLDLTQSKSFQLEDAENFISNIRVTVVKLKGSDNTFECQFDDESATVVDFLRRWIAFCQSIISTSPQ
IFNγ production, effect of addition to TNF co-stimulation (mouse CD8 T cells; TNF 5 ng/ml with Smac-mimetic or IL-2, supernatant at 48 hours): synergised

B3: mSTAR: TNFR2-specific agonist TNF mutein (Rauert et al., 2010; Chopra et al., 2016), SEQ ID NO:3, produced in HEK293 cells (protein)
chain: ACGCAAAPDIKDLLSRLEELEGLVSSLREQGGGGSLRSSSQNSSDKPVAHVVANHQVEEQLEWLSQRANALLANGMDLKDNQLVVPADGLYLVYSQVLFKGQGCPDYVLLTHTVSRFAISYQEKVNLLSAVKSPCPKDTPEGAELKPWYEPIYLGGVFQLEKGDQLSAEVNLPKYLNFRESGQVYFGVIALGGGGSLRSSSQNSSDKPVAHVVANHQVEEQLEWLSQRANALLANGMDLKDNQLVVPADGLYLVYSQVLFKGQGCPDYVLLTHTVSRFAISYQEKVNLLSAVKSPCPKDTPEGAELKPWYEPIYLGGVFQLEKGDQLSAEVNLPKYLNFRESGQVYFGVIALGGGGSLRSSSQNSSDKPVAHVVANHQVEEQLEWLSQRANALLANGMDLKDNQLVVPADGLYLVYSQVLFKGQGCPDYVLLTHTVSRFAISYQEKVNLLSAVKSPCPKDTPEGAELKPWYEPIYLGGVFQLEKGDQLSAEVNLPKYLNFRESGQVYFGVIAL
T cell co-stimulation in CD8 T cells deficient for TNFR2 [1]: did not induce any T cell co-stimulation; also recorded: does not activate CD8 T cells in the absence of TNFR2
CD8 T cell response (dilution of cell division dyes, total cell numbers), mSTAR compared with TNF (naïve mouse CD8 T cells; [2]): can mimic TNF CD8 T cell activation
CD4 T cell response (dilution of cell tracking dyes, total cell numbers), TNF compared with mSTAR (naïve mouse CD4 T cells; [2]): can mimic TNF mediated CD4 T cell activation
